Test results reported in patent publication US20120171195A1.

Legend:
HLA-B*3701 (human) = assay: Luminex beads; MAb 1/400; competitor rHLA-E
HLA-B*1511 (human) = HLA-B*1511 (human) (UniProt P01889); assay: Luminex beads; MAb 1/400; competitor rHLA-E
HLA-B*1513 (human) = assay: Luminex beads; MAb 1/400; competitor rHLA-E
HLA-Cw*1601 (human) = HLA-Cw*1601 (human) (UniProt P10321); assay: Luminex beads; MAb 1/400; competitor rHLA-E
HLA-Cw*0501 (human) = assay: Luminex beads; MAb 1/400; competitor rHLA-E
HLA-B*1402 (human) = assay: Luminex beads; MAb 1/400; competitor rHLA-E
HLA-Cw*0302 (human) = HLA-Cw*0302 (human) (UniProt P10321); assay: Luminex beads; MAb 1/400; competitor rHLA-E
HLA-A*2501 (A25) (human) = assay: Luminex single-antigen beads; MEM-E/02 1/600; serum Mi114 1/100
[1] = target: HLA-Cw*1701 (Cw17) (human); assay: as above
HLA-B*1301 (B13) (human) = assay: as above
HLA-B*5201 (B52) (human) = assay: as above
[2] = target: HLA-Cw*1802 (Cw18) (human) (UniProt P10321); assay: as above
HLA-A*3201 (A32) (human) = assay: as above
HLA-B*2708 (B27) (human) = HLA-B*2708 (B27) (human) (UniProt P01889); assay: as above
HLA-B*5401 (B54) (human) = HLA-B*5401 (B54) (human) (UniProt P01889); assay: as above
HLA-B*6701 (B67) (human) = HLA-B*6701 (B67) (human) (UniProt P01889); assay: as above
HLA-B*4403 (B44) (human) = assay: as above
HLA-A*2402 (A24) (human) = HLA-A*2402 (A24) (human) (UniProt P04439); assay: as above
HLA-B*4501 (B45) (human) = assay: as above
HLA-B*5901 (B59) (human) = assay: as above
HLA-B*1511 (B75) (human) = HLA-B*1511 (B75) (human) (UniProt P01889); assay: as above
HLA-B*4801 (B48) (human) = HLA-B*4801 (B48) (human) (UniProt P01889); assay: as above
HLA-B*1513 (B77) (human) = assay: as above
HLA-B*1401 (B64) (human) = HLA-B*1401 (B64) (human) (UniProt P01889); assay: as above
HLA-B*0801 (B8) (human) = HLA-B*0801 (B8) (human) (UniProt P01889); assay: as above
HLA-A*2601 (A26) (human) = assay: as above
HLA-A*2901 (A29) (human) = HLA-A*2901 (A29) (human) (UniProt P04439); assay: as above
HLA-B*1801 (B18) (human) = assay: as above
[3] = target: HLA-Cw*0801 (Cw8) (human) (UniProt P10321); assay: as above
HLA-B*5001 (B50) (human) = assay: as above
HLA-Cw*0304 (human) = assay: as above
[4] = target: HLA-Cw*1203 (Cw12) (human) (UniProt P10321); assay: as above
HLA-B*3801 (B38) (human) = assay: as above
HLA-B*3901 (B39) (human) = HLA-B*3901 (B39) (human) (UniProt P01889); assay: as above
[5] = target: HLA-Cw*0401 (Cw4) (human); assay: as above
[6] = target: HLA-Cw*1502 (Cw15) (human); assay: as above
HLA-A*3002 (A30) (human) = HLA-A*3002 (A30) (human) (UniProt P04439); assay: as above

## murine monoclonal antibody (MAb) MEM-E/02
HLA-B*3701 (human)
  MFI: 39 MFI
HLA-B*1511 (human)
  MFI: 111 MFI
HLA-B*1513 (human)
  MFI: 228 MFI
HLA-Cw*1601 (human)
  MFI: 87 MFI
HLA-Cw*0501 (human)
  MFI: 87 MFI
HLA-B*1402 (human)
  MFI: 88 MFI
HLA-Cw*0302 (human)
  MFI: 130 MFI

## murine monoclonal antibody MAb MEM-E/02
HLA-A*2501 (A25) (human)
  MFI: < 500 MFI
[1]
  MFI: < 500 MFI
HLA-B*1301 (B13) (human)
  MFI: < 500 MFI
HLA-B*5201 (B52) (human)
  % inhibition: 88%
[2]
  MFI: < 500 MFI
HLA-A*3201 (A32) (human)
  MFI: 742 MFI
HLA-B*2708 (B27) (human)
  % inhibition: 29%
  MFI: 2260 MFI
HLA-B*5401 (B54) (human)
  % inhibition: 95%
  MFI: 990 MFI
HLA-B*6701 (B67) (human)
  MFI: < 500 MFI
HLA-B*4403 (B44) (human)
  MFI: < 500 MFI
HLA-A*2402 (A24) (human)
  MFI: < 500 MFI
HLA-B*4501 (B45) (human)
  MFI: < 500 MFI
HLA-B*5901 (B59) (human)
  MFI: 930 MFI
HLA-B*1511 (B75) (human)
  MFI: < 500 MFI
HLA-B*4801 (B48) (human)
  MFI: 969 MFI
HLA-B*1513 (B77) (human)
  MFI: 1550 MFI
HLA-B*1401 (B64) (human)
  MFI: < 500 MFI
HLA-B*0801 (B8) (human)
  MFI: < 500 MFI
HLA-A*2601 (A26) (human)
  MFI: < 500 MFI
HLA-A*2901 (A29) (human)
  MFI: < 500 MFI
HLA-B*1801 (B18) (human)
  MFI: < 500 MFI
[3]
  MFI: < 500 MFI
HLA-B*5001 (B50) (human)
  MFI: < 500 MFI
HLA-Cw*0304 (human)
  MFI: < 500 MFI
[4]
  MFI: < 500 MFI
HLA-B*3801 (B38) (human)
  % inhibition: 76%
  MFI: 929 MFI
HLA-B*3901 (B39) (human)
  MFI: 530 MFI
[5]
  MFI: < 500 MFI
[6]
  MFI: < 500 MFI
HLA-A*3002 (A30) (human)
  MFI: 803 MFI
